We go through three molecules from patent publication US20050037967A1 (RESEARCH DEVELOPMENT FOUNDATION, published 2005).

For test [1], the target named is human FLT-1 receptor (VEGFR-1) on PAE/FLT-1 cells (human) (UniProt P17948). The test is described as follows: cell-based or functional assay.
Another test has as its target FLK-1 on PAE/FLK-1 cells. The test is described as follows: cell-based or functional assay.
Test [2] concerns the target Flk-1 on murine brain endothelioma bEnd.3 cells (mouse) (UniProt P35918). Put plainly: cell-based or functional assay.
Test [3] deals with human kinase domain receptor (KDR, VEGFR-2) on cells (human) (UniProt P35968). Put plainly: cell-based or functional assay.
human kinase domain receptor (KDR, VEGFR-2) on cells (human), sequence (P35968 20-1356): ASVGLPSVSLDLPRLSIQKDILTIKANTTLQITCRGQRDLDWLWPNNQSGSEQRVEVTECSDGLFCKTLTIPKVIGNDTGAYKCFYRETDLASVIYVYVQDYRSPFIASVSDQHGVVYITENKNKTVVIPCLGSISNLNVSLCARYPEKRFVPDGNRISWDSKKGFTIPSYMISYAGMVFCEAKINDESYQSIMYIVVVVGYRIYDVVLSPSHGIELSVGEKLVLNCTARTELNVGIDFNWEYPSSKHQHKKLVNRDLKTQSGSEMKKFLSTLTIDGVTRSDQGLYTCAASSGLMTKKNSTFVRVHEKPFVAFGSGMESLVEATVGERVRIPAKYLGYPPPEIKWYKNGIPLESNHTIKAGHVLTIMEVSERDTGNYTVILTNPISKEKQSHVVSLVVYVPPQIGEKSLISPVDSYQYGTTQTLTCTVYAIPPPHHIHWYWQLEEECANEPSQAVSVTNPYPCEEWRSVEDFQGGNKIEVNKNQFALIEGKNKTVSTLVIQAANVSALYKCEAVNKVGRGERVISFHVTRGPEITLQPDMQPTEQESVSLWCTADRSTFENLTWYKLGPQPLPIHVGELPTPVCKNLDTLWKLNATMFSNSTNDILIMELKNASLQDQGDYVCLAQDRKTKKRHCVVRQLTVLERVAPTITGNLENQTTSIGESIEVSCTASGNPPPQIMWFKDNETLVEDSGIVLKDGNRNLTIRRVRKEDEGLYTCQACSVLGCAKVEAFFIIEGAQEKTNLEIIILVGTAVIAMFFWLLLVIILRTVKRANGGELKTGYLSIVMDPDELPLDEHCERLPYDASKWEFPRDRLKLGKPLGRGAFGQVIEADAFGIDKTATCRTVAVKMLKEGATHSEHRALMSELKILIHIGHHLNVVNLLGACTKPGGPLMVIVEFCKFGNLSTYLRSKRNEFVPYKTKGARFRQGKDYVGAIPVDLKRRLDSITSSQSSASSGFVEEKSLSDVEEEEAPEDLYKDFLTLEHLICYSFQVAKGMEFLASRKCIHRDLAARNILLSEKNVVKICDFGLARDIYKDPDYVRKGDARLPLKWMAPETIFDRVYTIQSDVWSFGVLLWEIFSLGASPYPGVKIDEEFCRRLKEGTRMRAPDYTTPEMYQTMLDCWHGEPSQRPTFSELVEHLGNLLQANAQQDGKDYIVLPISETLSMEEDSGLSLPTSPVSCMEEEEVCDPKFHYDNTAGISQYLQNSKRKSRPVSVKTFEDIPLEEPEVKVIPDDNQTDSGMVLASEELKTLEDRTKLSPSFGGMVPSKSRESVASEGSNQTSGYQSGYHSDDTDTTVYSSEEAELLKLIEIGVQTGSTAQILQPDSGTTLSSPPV
Test [4] addresses KDR/Flk-1 on adult bovine aortic arch-derived endothelial cells (ABAE) (bovine). Put plainly: cell-based or functional assay.
In test [5] the target is Flt-1 on osteoclast precursor cells (RAW 264.7 cells and mouse bone marrow-derived monocytes) (mouse) (UniProt P35969). The test is described as follows: cell-based or functional assay.
Flt-1 on osteoclast precursor cells (RAW 264.7 cells and mouse bone marrow-derived monocytes) (mouse), sequence (P35969 23-1333 S1181G): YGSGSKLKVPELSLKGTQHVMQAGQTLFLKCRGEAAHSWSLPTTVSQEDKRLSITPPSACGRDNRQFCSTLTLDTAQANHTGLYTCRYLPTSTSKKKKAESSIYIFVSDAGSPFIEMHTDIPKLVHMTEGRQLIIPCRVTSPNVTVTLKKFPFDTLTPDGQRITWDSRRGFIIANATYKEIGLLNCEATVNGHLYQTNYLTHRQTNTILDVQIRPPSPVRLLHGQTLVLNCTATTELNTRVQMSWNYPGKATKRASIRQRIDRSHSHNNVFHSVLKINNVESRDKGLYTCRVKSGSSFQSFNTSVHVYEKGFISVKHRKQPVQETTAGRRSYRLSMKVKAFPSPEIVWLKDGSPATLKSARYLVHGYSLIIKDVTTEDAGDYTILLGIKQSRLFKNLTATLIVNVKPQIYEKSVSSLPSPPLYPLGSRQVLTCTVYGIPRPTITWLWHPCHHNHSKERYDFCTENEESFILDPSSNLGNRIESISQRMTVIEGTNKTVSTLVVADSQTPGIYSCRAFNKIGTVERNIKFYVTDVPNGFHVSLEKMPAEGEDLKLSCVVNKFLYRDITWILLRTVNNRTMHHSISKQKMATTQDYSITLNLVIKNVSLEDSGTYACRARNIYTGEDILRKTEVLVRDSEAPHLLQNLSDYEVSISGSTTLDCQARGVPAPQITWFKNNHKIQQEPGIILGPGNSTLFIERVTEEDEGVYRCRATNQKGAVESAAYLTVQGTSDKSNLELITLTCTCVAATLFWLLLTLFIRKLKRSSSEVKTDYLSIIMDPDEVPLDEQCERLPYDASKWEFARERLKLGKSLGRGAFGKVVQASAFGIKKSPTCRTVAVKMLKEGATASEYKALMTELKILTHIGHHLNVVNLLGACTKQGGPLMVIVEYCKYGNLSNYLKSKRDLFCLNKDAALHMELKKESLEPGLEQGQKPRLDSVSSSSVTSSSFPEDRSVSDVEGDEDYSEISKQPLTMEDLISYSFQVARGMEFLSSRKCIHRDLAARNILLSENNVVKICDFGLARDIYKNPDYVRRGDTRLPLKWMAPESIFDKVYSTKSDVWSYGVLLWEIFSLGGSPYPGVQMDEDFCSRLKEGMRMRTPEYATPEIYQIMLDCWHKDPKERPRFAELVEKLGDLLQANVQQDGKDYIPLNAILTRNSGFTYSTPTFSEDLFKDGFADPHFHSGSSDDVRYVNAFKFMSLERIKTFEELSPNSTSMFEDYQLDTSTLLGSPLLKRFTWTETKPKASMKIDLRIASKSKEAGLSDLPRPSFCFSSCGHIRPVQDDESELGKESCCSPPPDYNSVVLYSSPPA
For test [6], the target named is T1, soluble mouse Flk-1, purified and biotinylated, expressed in Sf9 cells (mouse, UniProt P35918 20-762).
T1 construct: Captured on NeutrAvidin-coated plates; Only 'soluble' is said of the construct; also called biotinylated mouse flk-1 receptor; flk-1 receptor
T1 sequence (P35918 20-762 limits assumed): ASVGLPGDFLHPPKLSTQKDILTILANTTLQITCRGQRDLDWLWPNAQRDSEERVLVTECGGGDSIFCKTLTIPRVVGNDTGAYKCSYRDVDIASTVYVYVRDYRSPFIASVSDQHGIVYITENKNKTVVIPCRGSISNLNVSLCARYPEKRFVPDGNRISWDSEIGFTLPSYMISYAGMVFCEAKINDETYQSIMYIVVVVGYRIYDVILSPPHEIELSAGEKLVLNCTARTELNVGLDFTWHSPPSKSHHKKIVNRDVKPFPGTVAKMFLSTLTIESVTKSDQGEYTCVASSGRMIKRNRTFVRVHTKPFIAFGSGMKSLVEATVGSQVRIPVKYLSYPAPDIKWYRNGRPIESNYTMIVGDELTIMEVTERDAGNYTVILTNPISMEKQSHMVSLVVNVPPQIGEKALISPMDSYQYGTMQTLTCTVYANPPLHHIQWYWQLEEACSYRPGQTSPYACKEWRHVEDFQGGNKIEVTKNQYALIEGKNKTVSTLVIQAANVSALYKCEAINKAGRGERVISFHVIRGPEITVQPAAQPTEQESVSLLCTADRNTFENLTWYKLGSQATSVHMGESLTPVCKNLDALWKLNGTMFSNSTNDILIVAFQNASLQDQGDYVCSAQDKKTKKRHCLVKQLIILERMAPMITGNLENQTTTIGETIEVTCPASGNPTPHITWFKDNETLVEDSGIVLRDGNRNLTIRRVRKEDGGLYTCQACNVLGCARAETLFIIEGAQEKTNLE
The test is described as follows: ELISA, biotinylated soluble mouse Flk-1 on NeutrAvidin-coated plates; detection with 2C3. Background: An ELISA detects its analyte on a solid surface through an enzyme-linked reagent.

Where only a bound is given, the exact number is not on record here.

human FLT-1 receptor (VEGFR-1) on PAE/FLT-1 cells (human), sequence (P17948 27-1338): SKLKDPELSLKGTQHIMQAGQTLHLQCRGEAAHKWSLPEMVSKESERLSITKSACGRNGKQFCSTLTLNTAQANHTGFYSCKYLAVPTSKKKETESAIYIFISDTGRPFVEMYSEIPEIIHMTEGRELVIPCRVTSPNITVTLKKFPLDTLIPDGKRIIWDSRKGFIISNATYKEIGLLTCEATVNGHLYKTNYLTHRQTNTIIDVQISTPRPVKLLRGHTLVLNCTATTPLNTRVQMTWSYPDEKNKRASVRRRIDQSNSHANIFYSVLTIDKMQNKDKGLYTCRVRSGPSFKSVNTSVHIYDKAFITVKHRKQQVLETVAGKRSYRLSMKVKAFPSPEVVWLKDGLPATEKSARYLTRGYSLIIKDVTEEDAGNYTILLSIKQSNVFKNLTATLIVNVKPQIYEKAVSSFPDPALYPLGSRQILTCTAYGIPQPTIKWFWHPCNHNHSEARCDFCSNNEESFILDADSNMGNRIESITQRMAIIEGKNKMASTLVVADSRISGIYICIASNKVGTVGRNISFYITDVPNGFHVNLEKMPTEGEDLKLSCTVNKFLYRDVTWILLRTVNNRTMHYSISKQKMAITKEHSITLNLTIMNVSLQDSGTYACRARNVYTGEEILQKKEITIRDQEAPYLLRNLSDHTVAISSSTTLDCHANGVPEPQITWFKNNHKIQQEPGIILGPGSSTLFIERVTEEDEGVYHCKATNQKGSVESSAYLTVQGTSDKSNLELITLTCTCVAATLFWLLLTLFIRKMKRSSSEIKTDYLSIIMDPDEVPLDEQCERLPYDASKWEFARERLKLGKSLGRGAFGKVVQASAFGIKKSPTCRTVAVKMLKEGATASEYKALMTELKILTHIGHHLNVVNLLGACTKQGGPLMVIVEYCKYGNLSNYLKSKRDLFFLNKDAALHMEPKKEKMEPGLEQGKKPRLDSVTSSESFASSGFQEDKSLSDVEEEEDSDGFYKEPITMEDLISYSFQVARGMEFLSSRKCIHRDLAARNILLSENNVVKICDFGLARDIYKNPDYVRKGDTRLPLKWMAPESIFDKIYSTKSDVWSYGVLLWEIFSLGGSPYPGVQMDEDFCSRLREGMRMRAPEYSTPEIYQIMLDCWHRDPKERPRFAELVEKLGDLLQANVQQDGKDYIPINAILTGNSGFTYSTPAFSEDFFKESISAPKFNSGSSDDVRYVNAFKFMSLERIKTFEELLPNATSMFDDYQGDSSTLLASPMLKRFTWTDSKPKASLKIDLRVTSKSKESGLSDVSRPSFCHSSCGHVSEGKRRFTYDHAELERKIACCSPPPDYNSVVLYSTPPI
FLK-1 on PAE/FLK-1 cells, sequence (P35968 20-1356): as the sequence (P35968 20-1356) above

In test [1], “GrB/VEGF121 fusion protein (mature granzyme B, G4S tether, VEGF121) (from UniProt P10144 21-247; P15692 27-147)” came in with a clonogenic (colony-forming) assay on PAE/FLT-1 cells greater than 100 nM and a cytotoxicity on log-phase PAE/FLT-1 cells, XTT, 72 h greater than 200 nM. In addition, in the test with FLK-1 on PAE/FLK-1 cells, the IC50, clonogenic (colony-forming) assay on PAE/FLK-1 cells is 20 nM and the IC50, cytotoxicity on log-phase PAE/FLK-1 cells, XTT, 72 h amounted to 10 nM.

In test [2], “VEGF121/rGel fusion toxin (VEGF121 at the N-terminus, G4S tether, recombinant gelonin) (from UniProt P15692 27-147; P33186 47-297)” displayed an IC50 for VEGF121/rGel (nM), cytotoxicity, bEnd3 (log phase) of 1 nM and a Targeting index, bEnd3 (log phase) of 100. For the same molecule, in test [1], the IC50 for VEGF121/rGel (nM), cytotoxicity, PAE/FLT-1 (confluent) is greater than 5000 nM; the IC50 for VEGF121/rGel (nM), cytotoxicity, PAE/FLT-1 (log phase) is 300 nM; the Targeting index, PAE/FLT-1 (confluent) was less than 2; the Targeting index, PAE/FLT-1 (log phase) worked out at 1. The molecule further had a dose inhibiting tube formation of PAE/Flt-1 cells on Matrigel by 50% in test [1] of 100 nM. In test [3], the IC50, cytotoxicity on log-phase PAE/KDR cells, 72 h (bladder tumor comparison experiment) came to 1 nM; the IC50 for VEGF121/rGel (nM), cytotoxicity, HUVEC (hypoxia) amounted to 700 nM; the IC50 for VEGF121/rGel (nM), cytotoxicity, HUVEC (normoxia) turned out to be 800 nM; the IC50 for VEGF121/rGel (nM), cytotoxicity, PAE/KDR (confluent) was 30 nM. In test [3], the IC50 for VEGF121/rGel (nM), cytotoxicity, PAE/KDR (log phase), 72 h amounted to 0.5 nM; the Targeting index (ratio of IC50 of rGel to VEGF121/rGel), PAE/KDR (log phase) turned out to be 600; the Targeting index, HUVEC (hypoxia) was 1; the Targeting index, HUVEC (normoxia) is 1. In test [3], this molecule gave a Targeting index, PAE/KDR (confluent) of 167 and a dose inhibiting tube formation of PAE/KDR cells on Matrigel by 50% of 1 nM. Further, the IC50, cytotoxicity on PAE/FLK-1 cells, XTT, 72 h with FLK-1 on PAE/FLK-1 cells turned out to be 1 nM. Also, in test [4], the IC50 for VEGF121/rGel (nM), cytotoxicity, ABAE (log phase) came out at 0.059 nM and the Targeting index, ABAE (log phase) came out at 8.9. In test [5], this molecule returned an IC50, cytotoxicity on bone marrow-derived monocytes of 10 nM and an IC50, cytotoxicity on dividing RAW cells of 40 nM.

B1: native human VEGF121 (ligand)
chain: APMAEGGGQNHHEVVKFMDVYQRSYCHPIETLVDIFQEYPDEIEYIFKPSCVPLMRCGGCCNDEGLECVPTEESNITMQIMRIKPHQGQHIGEMSFLQHNKCECRPKKDRARQEKCDKPRR
notes: mature; also called free VEGF121
Turning to B1, the binding result in test [6] is recorded as “binds”.
